Measurements from patent publication US20230106715A1 (BIOSION, published 2023).

What was measured:
[1] = target: T1, mouse Siglec15-his protein (mouse); assay: indirect ELISA on coated mouse Siglec15-his
T1 construct: In house made
T1 chain: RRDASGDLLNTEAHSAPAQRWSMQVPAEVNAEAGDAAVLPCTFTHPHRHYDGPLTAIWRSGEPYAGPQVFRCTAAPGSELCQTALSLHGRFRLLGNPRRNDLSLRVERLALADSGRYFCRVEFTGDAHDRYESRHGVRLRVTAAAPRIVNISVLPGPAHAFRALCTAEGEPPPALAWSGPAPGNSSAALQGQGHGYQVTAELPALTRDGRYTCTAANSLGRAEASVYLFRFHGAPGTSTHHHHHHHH

[2] = target: T2, cynomolgus monkey Siglec15-his protein (cynomolgus monkey); assay: indirect ELISA on coated cynomolgus Siglec15-his
T2 construct: In house made; also called Cynomolgus Siglec15-his; cynomolgus Siglec15
T2 chain: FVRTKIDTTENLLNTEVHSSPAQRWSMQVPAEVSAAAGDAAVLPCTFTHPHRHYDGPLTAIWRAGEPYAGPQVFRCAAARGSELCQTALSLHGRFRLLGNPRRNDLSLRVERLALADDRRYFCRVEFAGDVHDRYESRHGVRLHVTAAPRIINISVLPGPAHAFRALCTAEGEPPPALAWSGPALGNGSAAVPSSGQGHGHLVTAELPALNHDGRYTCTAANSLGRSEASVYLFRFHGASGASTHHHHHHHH
Protocol: The anti-Siglec15 antibodies' cross-reactions to cynomolgus or mouse Siglec15 proteins were measured. Briefly, 96-well micro plates were coated with 100 μl of 2 μg/ml cynomolgus Siglec15-his protein (in house made with SEQ ID NO: 21), or 2 μg/ml mouse Siglec15-his protein (in house made with SEQ ID NO: 22) in carbonate/bicarbonate buffer (pH 9.6) for 2 hours at 37° C. ELISA plates were washed once with wash buffer (PBS+0.05% v/v Tween-20, PBST) and then blocked with 200 μl/well blocking buffer (5% w/v non-fatty milk in PBST) overnight at 4° C. Plates were washed 4 times and incubated with 100 μl serially diluted anti-Siglec15 antibodies of the disclosure or controls (starting at 66.7 nM, 5-fold serial dilution in PBST with 2.5% w/v non-fatty milk) for 40 minutes at 37° C. ELISA plates were washed 4 times again and incubated with Peroxidase AffiniPure Goat Anti-Human IgG, F(ab)₂ fragment specific (1:5000 dilution in PBST buffer, Jackson Immunoresearch, Cat #109-035-097, 100 μl/well) for 40 minutes at 37° C. After a final wash, plates were incubated with 100 μl/well TMB (Innoreagents, Cat #TMB-S-002). The reaction was stopped 4 minutes later at room temperature with 50 μl 1M H₂SO₄, and the absorbance of each well was read on a microplate reader using dual wavelength mode with 450 nm for TMB and 630 nm as the reference wavelength, then the OD (450-630) values were plotted against antibody concentration. Data was analyzed using Graphpad Prism software and EC₅₀ values were reported.

[3] = target: T3, human Siglec15 on human-siglec15-2D3-1E1 cells (human, UniProt Q6ZMC9 20-328); assay: cell based binding FACS on human-siglec15-2D3-1E1 cells
T3 construct: whole, on cells; Transfected HEK-293 cells; also called cell surface human Siglec15
T3 sequence (looked up): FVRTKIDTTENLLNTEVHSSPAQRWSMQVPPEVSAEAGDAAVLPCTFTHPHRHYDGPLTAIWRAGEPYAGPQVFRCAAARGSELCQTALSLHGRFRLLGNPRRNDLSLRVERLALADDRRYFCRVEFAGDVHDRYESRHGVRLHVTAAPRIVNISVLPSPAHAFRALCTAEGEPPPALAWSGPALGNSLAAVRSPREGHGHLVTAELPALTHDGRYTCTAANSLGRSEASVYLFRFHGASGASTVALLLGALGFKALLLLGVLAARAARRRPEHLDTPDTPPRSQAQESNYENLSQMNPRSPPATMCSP
Protocol: The binding activities of the anti-Siglec15 antibodies to cell surface Siglec15 were tested by flow cytometry (FACS), using in-house prepared human-siglec15-2D3-1E1 cells expressing human Siglec15 (amino acid residues Met1-Pro328 of uniprot #Q6ZMC9) on cell membranes. The human-siglec15-2D3-1E1 cells were prepared by transfecting HEK-293 cells (ATCC #CRL-1573) with pCMV-T-P plasmids inserted with human Siglec15 coding sequence between EcoRI and XbaI sites, following the instruction of lipofectamine 3000 transfection reagent (Thermo Fisher). The human-siglec15-2D3-1E1 cells were harvested from cell culture flasks, washed twice and re-suspended in phosphate buffered saline (PBS) containing 2% v/v Fetal Bovine Serum (FACS buffer). 2×10⁵ cells per well in 96 well-plates were incubated in 100 μL serially diluted anti-Siglec15 antibodies or controls (starting at 66.67 nM, 5-fold serial dilution) in FACS buffer for 40 minutes on ice. […] Following a 40-minute incubation at 4° C. in dark, cells were washed three times and re-suspended in FACS buffer. Fluorescence was measured using a Becton Dickinson FACS Canto II-HTS equipment. Data was analyzed using Graphpad Prism software and EC₅₀ values were reported.

[4] = target: T4, human Siglec15-Fc protein (human); assay: competitive ELISA: coated human Siglec15-Fc, blocked ligand biotin-labeled human LRRC4C-Fc
T4 construct: In house made; also called recombinant human Siglec15 protein with human IgG1 Fc at the C-terminus
Protocol: Serially diluted anti-Siglec15 antibodies or the controls (starting at 66.67 nM with a 5-fold serial dilution) in PBST with 2.5% w/v non-fatty milk were added to the Siglec15-Fc bound plates, 100 μl per well, and incubated with the human Siglec15-Fc protein at 37° C. for 40 minutes. Plates were washed 4 times again using wash buffer, then added and incubated for 40 minutes at 37° C. with 100 μl/well 290 ng/ml biotin-labeled human LRRC4C-Fc protein (prepared in-house with SEQ ID NO: 23). Plates were washed again using wash buffer. Thereafter, the plates were added with 100 μl/well streptavidin conjugated HRP (1:5000 dilution in PBST buffer, Jackson Immunoresearch, Cat #016-030-084) and incubated for 40 minutes at 37° C. Plates were washed again using wash buffer. Finally, TMB was added and the reaction was stopped using 1M H₂SO₄, and the absorbance of each well was read on a microplate reader using dual wavelength mode with 450 nm for TMB and 630 nm as the reference wavelength, then the OD (450-630) values were plotted against antibody concentration. Data was analyzed using Graphpad Prism software and IC₅₀ values were reported.

B1: anti-Siglec15 benchmark (ch5G12) (antibody, human IgG1, kappa, V domains shown)
VH: QVQLQQPGAELVKPGASVKMSCKASGYTFTSYWITWVIQRPGQGLEWIGDIYCGSDTMHYNEKFKNKATLTVDTSSSTAYMQLSSLTSEDSAVYYCARWWDYGSSYDYFDYWGQGTTLTVSS
VL: DIKMTQSPSSMYASLGERVTITCKASQDINSYLSWFQQKPGKSPKTLIYRANRLVDGVPSRFSGSGSGQDYSLTISSLEYEDMGIYYCLQYDEFPYTFGGGTKLEIKR
notes: ch5G12 (US 20190202912A1); also called BM; Siglec15-ch5G9
- EC50 [1]: 211 pM
- EC50 [2]: 652 pM
- EC50 [3]: 11300 pM
- IC50 [4]: 751 pM

B2: A1E10G7H9 (antibody, V domains shown)
VH: QVQLQESGPGLVKPSGTLSLTCAVSGGSISSSNWWHWVRQPPGKGLEWIGEIYHSGNTNYKPSLKSRVTISVDKSKNQFSLKLSSVTAADTAVYYCARDEGNGWSNAFDIWGQGTMVTVSS
VL: ENVLTQSPGTLSLSPGERVTLSCRASQSVSSSYLAWYQQKPGQAPRFLIYGASGGATGIPDRFSGSGSGTDFTLTISRLEPEDFAVYYCQQYGSSPITFGQGTRLEIK
notes: Fully human antibody from transgenic mouse hybridoma
- EC50 [2]: 509 pM
- EC50 [3]: 182 pM
- IC50 [4]: 1240 pM

B3: B2D7H7A3C1 (antibody, V domains shown)
VH: QVQLQQSGAELVRPGTSVQMSCKAAGYTFTNYWIGWVKQRPGHGLEWVGDIHPGINYTNNNEKFRGKATLTADTSSNTAYMQLRGLTSDDSAIYYCARVDYDYDGSYIMDYWGQGTSVTVSS
VL: QIVLSQSPALLSASPGEKVTMTCRASSSVSYMYWYQQKPGSSPKPWIYATSNLTSGVPARFSGSGSGTSYSLTISRVEAEDAATYFCQQWNSKPWTFGGGSKLEIR
notes: Mouse monoclonal antibody from hybridoma; also called mouse B2D7H7A3C1
- EC50 [1]: 994 pM

B4: B2H2H1H7 (antibody, V domains shown)
VH: QVQLQQSGAELVRPGTSVQMSCKAAGYTFTNYWIGWVKQRPGHGLEWVGDIHPGINYTNNNEKFRGKATLTADTSSSTAYMQLRGLTSDDSAIYYCARVDYDYDGSYIMDYWGQGTSVTVSS
VL: QIILSQSPALLSASPGEKVTMTCRASSSVSYMYWYQQKPGSSPKPWIYATSNLTSGVPARFSGSGSGTSYSLTISRVEAEDAATYFCQQWNSKPWTFGGGSRLEIR
notes: Mouse monoclonal antibody from hybridoma; also called mouse B2H2H1H7; B2H2H1A7
- EC50 [1]: 651 pM

B5: B2G12H3E8 (antibody, V domains shown)
VH: QVQLKQSGAELVRPGTSVQMSCKAVGYTFTNYWIGWVKQRPGHGLEWVGDIHPGINYTNNNEKFRGKATLTADTSSSTAYMQLRGLTSDDSAIYYCARVDYDYDGSYIMDYWGQGTSVTVSS
VL: QIVLSQSPALLSASPGEKVTMTCRASSSVSYMYWYQQKPGSSPKPWIYATSNLTSGVPARFSGSGSGTSYSLTISRVEAEDAATYFCQQWNSKPWTFGGGSKLEIR
notes: Mouse monoclonal antibody from hybridoma; also called mouse B2G12H3E8
- EC50 [1]: 408 pM

B6: A2A5C7E8 (antibody, V domains shown)
VH: EVQLVQSGAEVKKPGESLRISCKGSGYSFTTYWISWVRQMPGKGLEWMGLIDPSDSYTNYSPSFQGHVTISTDKSISTAYLQWSSLKASDTAMYYCARGGYYGSEEDYWGQGTLVTVSS
VL: EIVLTQSPGTLSLSPGERATLSCRASQSVSSSRLAWFQQKSGQAPRLLIFDASSRATGIPDRFSGSGSGTDFTLTISRLEPEDFAVYYCQQYGSSPRTFGQGTKVEFK
notes: Fully human antibody from transgenic mouse hybridoma; also called A2A5C7E8-1
- EC50 [2]: 521 pM
- EC50 [3]: 24100 pM
- IC50 [4]: 840 pM
